Experimental data taken from IntAct's records for PubMed 18583962.

B1: LIM domain-binding protein 1 (Mus musculus), P70662 (parent)
chain: MSVGCACPGCSSKSFKLYSPKEPPNGNAFPPFHPGTMLDRDVGPTPMYPPTYLEPGIGRHTPYGNQTDYRIFELNKRLQNWTEECDNLWWDAFTTEFFEDDAMLTITFCLEDGPKRYTIGRTLIPRYFRSIFEGGATELYYVLKHPKEAFHSNFVSLDCDQGSMVTQHGKPMFTQVCVEGRLYLEFMFDDMMRIKTWHFSIRQHRELIPRSILAMHAQDPQMLDQLSKNITRCGLSNSTLNYLRLCVILEPMQELMSRHKTYSLSPRDCLKTCLFQKWQRMVAPPAEPARQQPSKRRKRKMSGGSTMSSGGGNTNNSNSKKKSPASTFALSSQVPDVMVVGEPTLMGGEFGDEDERLITRLENTQFDAANGIDDEDSFNNSPALGANSPWNSKPPSSQESKSENPTSQASQ
partner: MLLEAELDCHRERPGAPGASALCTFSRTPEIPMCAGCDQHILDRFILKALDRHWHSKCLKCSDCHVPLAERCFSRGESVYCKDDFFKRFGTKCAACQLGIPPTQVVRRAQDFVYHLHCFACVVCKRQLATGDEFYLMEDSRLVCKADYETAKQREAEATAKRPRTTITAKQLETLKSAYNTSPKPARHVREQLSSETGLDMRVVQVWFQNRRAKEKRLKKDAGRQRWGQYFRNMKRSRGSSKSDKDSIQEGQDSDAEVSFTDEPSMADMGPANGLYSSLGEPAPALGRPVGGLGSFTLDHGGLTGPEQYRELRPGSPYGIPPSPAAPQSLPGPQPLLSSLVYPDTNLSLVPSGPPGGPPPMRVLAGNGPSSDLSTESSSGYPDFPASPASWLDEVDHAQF
B2: LIM domain-binding protein 1 (Mus musculus), P70662 (parent)
chain: B1 chain
partner: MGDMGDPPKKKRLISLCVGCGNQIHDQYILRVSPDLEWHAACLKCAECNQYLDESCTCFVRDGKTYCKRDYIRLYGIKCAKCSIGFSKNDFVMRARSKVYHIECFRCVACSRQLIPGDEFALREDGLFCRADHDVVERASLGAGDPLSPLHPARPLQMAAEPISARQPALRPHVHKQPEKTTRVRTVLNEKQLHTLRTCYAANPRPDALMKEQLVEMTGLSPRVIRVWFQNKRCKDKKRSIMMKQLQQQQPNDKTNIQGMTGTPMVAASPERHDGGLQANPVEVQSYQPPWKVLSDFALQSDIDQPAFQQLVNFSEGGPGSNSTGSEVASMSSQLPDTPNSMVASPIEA
B3: Insulin gene enhancer protein ISL-1 (Mus musculus), P61372 (parent)
chain: B2 partner
partner: B1 partner

Variants of: B1
Details: with lhx3_mouse Lhx3, P50481

Row | effect of a mutation on the interaction | Variant
1 | disrupting interaction | MSVGCACPGCSSKSFKLYSPKEPPNGNAFPPFHPGTMLDRDVGPTPMYPPTYLEPGIGRHTPYGNQTDYRIFELNKRLQNWTEECDNLWWDAFTTEFFEDDAMLTITFCLEDGPKRYTIGRTLIPRYFRSIFEGGATELYYVLKHPKEAFHSNFVSLDCDQGSMVTQHGKPMFTQVCVEGRLYLEFMFDDMMRIKTWHFSIRQHRELIPRSILAMHAQDPQMLDQLSKNITRCGLSNSTLNYLRLCVILEPMQELMSRHKTYSLSPRDCLKTCLFQKWQRMVAPPAEPARQQPSKRRKRKMSGGSTMSSGGGNTNNSNSKKKSPASTFALSSQVPDVMVVGEPTAMGGEFGDEDERLITRLENTQFDAANGIDDEDSFNNSPALGANSPWNSKPPSSQESKSENPTSQASQ [L345A]

Variants of: B1
Details: with lhx3_mouse Lhx3, P50481
Remark: another data set of the same source

Row | effect of a mutation on the interaction | Variant
2 | disrupting interaction | MSVGCACPGCSSKSFKLYSPKEPPNGNAFPPFHPGTMLDRDVGPTPMYPPTYLEPGIGRHTPYGNQTDYRIFELNKRLQNWTEECDNLWWDAFTTEFFEDDAMLTITFCLEDGPKRYTIGRTLIPRYFRSIFEGGATELYYVLKHPKEAFHSNFVSLDCDQGSMVTQHGKPMFTQVCVEGRLYLEFMFDDMMRIKTWHFSIRQHRELIPRSILAMHAQDPQMLDQLSKNITRCGLSNSTLNYLRLCVILEPMQELMSRHKTYSLSPRDCLKTCLFQKWQRMVAPPAEPARQQPSKRRKRKMSGGSTMSSGGGNTNNSNSKKKSPASTFALSSQVPDVAVVGEPTLMGGEFGDEDERLITRLENTQFDAANGIDDEDSFNNSPALGANSPWNSKPPSSQESKSENPTSQASQ [M338A]
3 | disrupting interaction | MSVGCACPGCSSKSFKLYSPKEPPNGNAFPPFHPGTMLDRDVGPTPMYPPTYLEPGIGRHTPYGNQTDYRIFELNKRLQNWTEECDNLWWDAFTTEFFEDDAMLTITFCLEDGPKRYTIGRTLIPRYFRSIFEGGATELYYVLKHPKEAFHSNFVSLDCDQGSMVTQHGKPMFTQVCVEGRLYLEFMFDDMMRIKTWHFSIRQHRELIPRSILAMHAQDPQMLDQLSKNITRCGLSNSTLNYLRLCVILEPMQELMSRHKTYSLSPRDCLKTCLFQKWQRMVAPPAEPARQQPSKRRKRKMSGGSTMSSGGGNTNNSNSKKKSPASTFALSSQVPDVMVVGEPTLMGGEFGDEDERLATRLENTQFDAANGIDDEDSFNNSPALGANSPWNSKPPSSQESKSENPTSQASQ [I358A]

Variants of: B1
Details: with lhx3_mouse Lhx3, P50481
Remark: another data set of the same source

Row | effect of a mutation on the interaction | Variant
4 | disrupting interaction | MSVGCACPGCSSKSFKLYSPKEPPNGNAFPPFHPGTMLDRDVGPTPMYPPTYLEPGIGRHTPYGNQTDYRIFELNKRLQNWTEECDNLWWDAFTTEFFEDDAMLTITFCLEDGPKRYTIGRTLIPRYFRSIFEGGATELYYVLKHPKEAFHSNFVSLDCDQGSMVTQHGKPMFTQVCVEGRLYLEFMFDDMMRIKTWHFSIRQHRELIPRSILAMHAQDPQMLDQLSKNITRCGLSNSTLNYLRLCVILEPMQELMSRHKTYSLSPRDCLKTCLFQKWQRMVAPPAEPARQQPSKRRKRKMSGGSTMSSGGGNTNNSNSKKKSPASTFALSSQVPDVMVVGEPALMGGEFGDEDERLITRLENTQFDAANGIDDEDSFNNSPALGANSPWNSKPPSSQESKSENPTSQASQ [T344A]

Variants of: B1
Details: with lhx3_mouse Lhx3, P50481
Remark: another data set of the same source

Row | effect of a mutation on the interaction | Variant
5 | disrupting interaction | MSVGCACPGCSSKSFKLYSPKEPPNGNAFPPFHPGTMLDRDVGPTPMYPPTYLEPGIGRHTPYGNQTDYRIFELNKRLQNWTEECDNLWWDAFTTEFFEDDAMLTITFCLEDGPKRYTIGRTLIPRYFRSIFEGGATELYYVLKHPKEAFHSNFVSLDCDQGSMVTQHGKPMFTQVCVEGRLYLEFMFDDMMRIKTWHFSIRQHRELIPRSILAMHAQDPQMLDQLSKNITRCGLSNSTLNYLRLCVILEPMQELMSRHKTYSLSPRDCLKTCLFQKWQRMVAPPAEPARQQPSKRRKRKMSGGSTMSSGGGNTNNSNSKKKSPASTFALSSQVPDVMAVGEPTLMGGEFGDEDERLITRLENTQFDAANGIDDEDSFNNSPALGANSPWNSKPPSSQESKSENPTSQASQ [V339A]

Variants of: B2
Details: with isl1_mouse Isl1, P61372

Row | effect of a mutation on the interaction | Variant
6 | decreasing interaction | MSVGCACPGCSSKSFKLYSPKEPPNGNAFPPFHPGTMLDRDVGPTPMYPPTYLEPGIGRHTPYGNQTDYRIFELNKRLQNWTEECDNLWWDAFTTEFFEDDAMLTITFCLEDGPKRYTIGRTLIPRYFRSIFEGGATELYYVLKHPKEAFHSNFVSLDCDQGSMVTQHGKPMFTQVCVEGRLYLEFMFDDMMRIKTWHFSIRQHRELIPRSILAMHAQDPQMLDQLSKNITRCGLSNSTLNYLRLCVILEPMQELMSRHKTYSLSPRDCLKTCLFQKWQRMVAPPAEPARQQPSKRRKRKMSGGSTMSSGGGNTNNSNSKKKSPASTFALSSQVPDVMVVGEPTLMGGEFGDEDERLIAAAENTQFDAANGIDDEDSFNNSPALGANSPWNSKPPSSQESKSENPTSQASQ [T359A;R360A;L361A]

Variants of: B2
Details: with isl1_mouse Isl1, P61372
Remark: another data set of the same source

Row | effect of a mutation on the interaction | Variant
7 | disrupting interaction | MSVGCACPGCSSKSFKLYSPKEPPNGNAFPPFHPGTMLDRDVGPTPMYPPTYLEPGIGRHTPYGNQTDYRIFELNKRLQNWTEECDNLWWDAFTTEFFEDDAMLTITFCLEDGPKRYTIGRTLIPRYFRSIFEGGATELYYVLKHPKEAFHSNFVSLDCDQGSMVTQHGKPMFTQVCVEGRLYLEFMFDDMMRIKTWHFSIRQHRELIPRSILAMHAQDPQMLDQLSKNITRCGLSNSTLNYLRLCVILEPMQELMSRHKTYSLSPRDCLKTCLFQKWQRMVAPPAEPARQQPSKRRKRKMSGGSTMSSGGGNTNNSNSKKKSPASTFALSSQVPDVMVVGEPTLMGGEFGDEDEAAATRLENTQFDAANGIDDEDSFNNSPALGANSPWNSKPPSSQESKSENPTSQASQ [R356A;L357A;I358A]

Variants of: B2
Details: with isl1_mouse Isl1, P61372
Remark: another data set of the same source

Row | effect of a mutation on the interaction | Variant
8 | disrupting interaction | MSVGCACPGCSSKSFKLYSPKEPPNGNAFPPFHPGTMLDRDVGPTPMYPPTYLEPGIGRHTPYGNQTDYRIFELNKRLQNWTEECDNLWWDAFTTEFFEDDAMLTITFCLEDGPKRYTIGRTLIPRYFRSIFEGGATELYYVLKHPKEAFHSNFVSLDCDQGSMVTQHGKPMFTQVCVEGRLYLEFMFDDMMRIKTWHFSIRQHRELIPRSILAMHAQDPQMLDQLSKNITRCGLSNSTLNYLRLCVILEPMQELMSRHKTYSLSPRDCLKTCLFQKWQRMVAPPAEPARQQPSKRRKRKMSGGSTMSSGGGNTNNSNSKKKSPASTFALSSQVPDVMVVGEPTLMGGEFGDEDERLIARLENTQFDAANGIDDEDSFNNSPALGANSPWNSKPPSSQESKSENPTSQASQ [T359A]

Variants of: B3
Details: with lhx3_mouse Lhx3, P50481

Row | effect of a mutation on the interaction | Variant
9 | disrupting interaction | MGDMGDPPKKKRLISLCVGCGNQIHDQYILRVSPDLEWHAACLKCAECNQYLDESCTCFVRDGKTYCKRDYIRLYGIKCAKCSIGFSKNDFVMRARSKVYHIECFRCVACSRQLIPGDEFALREDGLFCRADHDVVERASLGAGDPLSPLHPARPLQMAAEPISARQPALRPHVHKQPEKTTRVRTVLNEKQLHTLRTCYAANPRPDALMKEQLVEMTGLSPRVIRVWFQNKRCKDKKRSIMMKQLQQQQPNDKTNIQGMTGTPMVGASPERHDGGLQANPVEVQSYQPPWKVLSDFALQSDIDQPAFQQLVNFSEGGPGSNSTGSEVASMSSQLPDTPNSMVASPIEA [A267G]

Variants of: B3
Details: with lhx3_mouse Lhx3, P50481
Remark: another data set of the same source

Row | effect of a mutation on the interaction | Variant
10 | disrupting interaction | MGDMGDPPKKKRLISLCVGCGNQIHDQYILRVSPDLEWHAACLKCAECNQYLDESCTCFVRDGKTYCKRDYIRLYGIKCAKCSIGFSKNDFVMRARSKVYHIECFRCVACSRQLIPGDEFALREDGLFCRADHDVVERASLGAGDPLSPLHPARPLQMAAEPISARQPALRPHVHKQPEKTTRVRTVLNEKQLHTLRTCYAANPRPDALMKEQLVEMTGLSPRVIRVWFQNKRCKDKKRSIMMKQLQQQQPNDKTNIQGMTGTAMVAASPERHDGGLQANPVEVQSYQPPWKVLSDFALQSDIDQPAFQQLVNFSEGGPGSNSTGSEVASMSSQLPDTPNSMVASPIEA [P264A]
11 | disrupting interaction | MGDMGDPPKKKRLISLCVGCGNQIHDQYILRVSPDLEWHAACLKCAECNQYLDESCTCFVRDGKTYCKRDYIRLYGIKCAKCSIGFSKNDFVMRARSKVYHIECFRCVACSRQLIPGDEFALREDGLFCRADHDVVERASLGAGDPLSPLHPARPLQMAAEPISARQPALRPHVHKQPEKTTRVRTVLNEKQLHTLRTCYAANPRPDALMKEQLVEMTGLSPRVIRVWFQNKRCKDKKRSIMMKQLQQQQPNDKTNIQGMTGAPMVAASPERHDGGLQANPVEVQSYQPPWKVLSDFALQSDIDQPAFQQLVNFSEGGPGSNSTGSEVASMSSQLPDTPNSMVASPIEA [T263A]
12 | disrupting interaction | MGDMGDPPKKKRLISLCVGCGNQIHDQYILRVSPDLEWHAACLKCAECNQYLDESCTCFVRDGKTYCKRDYIRLYGIKCAKCSIGFSKNDFVMRARSKVYHIECFRCVACSRQLIPGDEFALREDGLFCRADHDVVERASLGAGDPLSPLHPARPLQMAAEPISARQPALRPHVHKQPEKTTRVRTVLNEKQLHTLRTCYAANPRPDALMKEQLVEMTGLSPRVIRVWFQNKRCKDKKRSIMMKQLQQQQPNDKTNIQGMTATPMVAASPERHDGGLQANPVEVQSYQPPWKVLSDFALQSDIDQPAFQQLVNFSEGGPGSNSTGSEVASMSSQLPDTPNSMVASPIEA [G262A]

Variants of: B3
Details: with lhx3_mouse Lhx3, P50481
Remark: another data set of the same source

Row | effect of a mutation on the interaction | Variant
13 | disrupting interaction | MGDMGDPPKKKRLISLCVGCGNQIHDQYILRVSPDLEWHAACLKCAECNQYLDESCTCFVRDGKTYCKRDYIRLYGIKCAKCSIGFSKNDFVMRARSKVYHIECFRCVACSRQLIPGDEFALREDGLFCRADHDVVERASLGAGDPLSPLHPARPLQMAAEPISARQPALRPHVHKQPEKTTRVRTVLNEKQLHTLRTCYAANPRPDALMKEQLVEMTGLSPRVIRVWFQNKRCKDKKRSIMMKQLQQQQPNDKTNIQGMTGTPAVAASPERHDGGLQANPVEVQSYQPPWKVLSDFALQSDIDQPAFQQLVNFSEGGPGSNSTGSEVASMSSQLPDTPNSMVASPIEA [M265A]
